From the Human Domainome abundance scans (Beltran et al. 2025)
± gives the uncertainty stated by the source.

B1: Telomeric repeat-binding factor 2, residues 489 to 542; numbered along this chain, Q15554 (parent)
chain: KQKWTVEESEWVKAGVQKYGEGNWAAISKNYPFVNRTAVMIKDRWRTMKRLGMN

Variants of: B1
Assay: abundance fitness (aPCA) (normalised: wild type 0, dead -1); higher = more abundant; growth selection in yeast, the domain comes from the species named
Conditions: Homo sapiens
Variant E10G has an abundance fitness of -0.38 ± 0.095.
E10K showed an abundance fitness of -0.314 ± 0.095.
Variant E10F has an abundance fitness of -0.255 ± 0.14.
With E10C the abundance fitness was -0.277 ± 0.065.
With E10S the abundance fitness was -0.311 ± 0.12.
Work on E10D yielded an abundance fitness of -0.486 ± 0.25.
E10V gave an abundance fitness of -0.359 ± 0.12.
Variant E10M has an abundance fitness of -0.055 ± 0.13.
E10W gave an abundance fitness of -0.414 ± 0.11.
E10I gave an abundance fitness of -0.529 ± 0.17.
Variant E10H has an abundance fitness of 0.044 ± 0.16.
E10T showed an abundance fitness of -0.102 ± 0.097.
E10Q gave an abundance fitness of -0.177 ± 0.13.
For Y19V, the abundance fitness was -1.04 ± 0.29.
Variant Y19K has an abundance fitness of -0.004 ± 0.13.
Work on Y19C yielded an abundance fitness of -0.528 ± 0.18.
For Y19Q, the abundance fitness was -0.225 ± 0.099.
In the case of Y19E, the abundance fitness is reported as -0.321 ± 0.16.
For Y19M, the abundance fitness was -0.464 ± 0.26.
Y19H gave an abundance fitness of -0.28 ± 0.079.
Variant Y19A has an abundance fitness of -0.421 ± 0.066.
Work on Y19W yielded an abundance fitness of -0.557 ± 0.085.
For Y19R, the abundance fitness was -0.162 ± 0.093.
With Y19P the abundance fitness was -0.083 ± 0.16.
With Y19T the abundance fitness was -0.395 ± 0.1.
With Y19L the abundance fitness was -0.51 ± 0.088.
In the case of Y19I, the abundance fitness is reported as -0.051 ± 0.34.
Y19N gave an abundance fitness of -0.242 ± 0.34.
Variant Y19S has an abundance fitness of -0.375 ± 0.071.
Work on Y19G yielded an abundance fitness of -0.912 ± 0.22.
E7D showed an abundance fitness of -0.141 ± 0.09.
With E7L the abundance fitness was -0.258 ± 0.068.
Variant E7Y has an abundance fitness of -0.329 ± 0.07.
Work on E7F yielded an abundance fitness of -0.47 ± 0.046.
Work on E7A yielded an abundance fitness of -0.242 ± 0.063.
With E7G the abundance fitness was -0.834 ± 0.11.
With E7S the abundance fitness was -0.67 ± 0.13.
Work on E7N yielded an abundance fitness of -0.721 ± 0.33.
Variant E7M has an abundance fitness of -0.015 ± 0.11.
Work on E7H yielded an abundance fitness of -0.377 ± 0.28.
For E7P, the abundance fitness was -0.401 ± 0.055.
In the case of E7V, the abundance fitness is reported as -0.459 ± 0.083.
Variant E7W has an abundance fitness of -0.443 ± 0.078.
E7Q showed an abundance fitness of -0.075 ± 0.12.
E7C gave an abundance fitness of -0.607 ± 0.2.
Work on E7R yielded an abundance fitness of -0.221 ± 0.08.
Work on E7T yielded an abundance fitness of -0.196 ± 0.091.
Work on E7I yielded an abundance fitness of -0.427 ± 0.2.
Work on Q2C yielded an abundance fitness of -0.248 ± 0.16.
For Q2R, the abundance fitness was -0.202 ± 0.082.
In the case of Q2I, the abundance fitness is reported as 0.29 ± 0.29.
Q2A gave an abundance fitness of -0.138 ± 0.1.
In the case of Q2E, the abundance fitness is reported as 0.254 ± 0.36.
In the case of Q2F, the abundance fitness is reported as 0.725 ± 0.2.
In the case of Q2D, the abundance fitness is reported as 0.184 ± 0.07.
Q2S showed an abundance fitness of -0.175 ± 0.14.
Q2V gave an abundance fitness of 0.271 ± 0.093.
With Q2G the abundance fitness was -0.163 ± 0.068.
Q2P showed an abundance fitness of -0.981 ± 0.28.
For Q2L, the abundance fitness was -0.017 ± 0.067.
Q2W gave an abundance fitness of -0.34 ± 0.14.
Work on Q2N yielded an abundance fitness of 0.333 ± 0.37.
Q2H gave an abundance fitness of 0.518 ± 0.13.
Variant Q2M has an abundance fitness of -0.191 ± 0.29.
Work on G15L yielded an abundance fitness of -0.503 ± 0.082.
G15M gave an abundance fitness of -0.934 ± 0.38.
Work on G15V yielded an abundance fitness of -0.587 ± 0.091.
With G15N the abundance fitness was -0.485 ± 0.1.
In the case of G15I, the abundance fitness is reported as 0.246 ± 0.38.
Variant G15W has an abundance fitness of -0.284 ± 0.14.
G15C gave an abundance fitness of -0.652 ± 0.17.
With G15F the abundance fitness was -0.888 ± 0.34.
G15A gave an abundance fitness of -0.761 ± 0.053.
Variant G15D has an abundance fitness of -0.772 ± 0.3.
G15E gave an abundance fitness of -0.758 ± 0.21.
Variant G15H has an abundance fitness of -0.946 ± 0.42.
Variant G15K has an abundance fitness of -0.657 ± 0.23.
With N23T the abundance fitness was -0.478 ± 0.18.
For N23C, the abundance fitness was -0.417 ± 0.36.
Variant N23D has an abundance fitness of -0.527 ± 0.26.
Variant N23L has an abundance fitness of -0.56 ± 0.14.
N23Q gave an abundance fitness of 0.057 ± 0.41.
With N23A the abundance fitness was -0.298 ± 0.11.
With N23S the abundance fitness was -0.238 ± 0.086.
N23P gave an abundance fitness of -0.773 ± 0.33.
N23M gave an abundance fitness of -0.385 ± 0.39.
N23G gave an abundance fitness of -0.61 ± 0.14.
With N23I the abundance fitness was -0.354 ± 0.23.
Variant N23K has an abundance fitness of 0.133 ± 0.11.
N23E gave an abundance fitness of -0.801 ± 0.36.
Variant Q17N has an abundance fitness of -0.295 ± 0.42.
For Q17S, the abundance fitness was -0.087 ± 0.079.
For Q17F, the abundance fitness was -0.469 ± 0.14.
Q17Y showed an abundance fitness of -0.136 ± 0.13.
Q17H showed an abundance fitness of -0.328 ± 0.29.
Q17T gave an abundance fitness of 0.003 ± 0.1.
In the case of Q17P, the abundance fitness is reported as -0.63 ± 0.26.
Q17R showed an abundance fitness of -0.2 ± 0.082.
Q17W showed an abundance fitness of -0.376 ± 0.1.
Q17D gave an abundance fitness of -0.273 ± 0.16.
In the case of Q17C, the abundance fitness is reported as 0.016 ± 0.12.
Variant Q17M has an abundance fitness of -0.531 ± 0.21.
With Q17G the abundance fitness was -0.108 ± 0.074.
Q17V gave an abundance fitness of -0.244 ± 0.085.
Variant Q17K has an abundance fitness of -0.143 ± 0.11.
In the case of Q17E, the abundance fitness is reported as -0.441 ± 0.067.
Variant Q17A has an abundance fitness of -0.031 ± 0.088.
With Q17L the abundance fitness was -0.014 ± 0.053.
Q17I gave an abundance fitness of -0.066 ± 0.15.
For A14D, the abundance fitness was -0.041 ± 0.087.
In the case of A14G, the abundance fitness is reported as -0.236 ± 0.053.
For A14H, the abundance fitness was -0.209 ± 0.24.
Work on A14S yielded an abundance fitness of 0.084 ± 0.086.
A14R showed an abundance fitness of -0.002 ± 0.09.
For A14P, the abundance fitness was -0.306 ± 0.24.
Variant A14Q has an abundance fitness of -0.189 ± 0.17.
With A14W the abundance fitness was -0.382 ± 0.18.
Variant A14N has an abundance fitness of -0.276 ± 0.07.
A14Y gave an abundance fitness of -0.217 ± 0.29.
Variant A14E has an abundance fitness of -0.116 ± 0.14.
With A14F the abundance fitness was -0.4 ± 0.21.
Work on A14L yielded an abundance fitness of -0.051 ± 0.061.
For G20E, the abundance fitness was -0.954 ± 0.37.
G20T gave an abundance fitness of -0.99 ± 0.17.
Variant G20I has an abundance fitness of -0.621 ± 0.45.
Variant G20P has an abundance fitness of -0.813 ± 0.37.
Variant G20S has an abundance fitness of -0.488 ± 0.1.
For G20H, the abundance fitness was -0.126 ± 0.16.
G20A gave an abundance fitness of -1.11 ± 0.29.
Variant G20L has an abundance fitness of -1.06 ± 0.24.
G20Y showed an abundance fitness of -0.781 ± 0.28.
Variant G20Q has an abundance fitness of -0.587 ± 0.33.
For G20W, the abundance fitness was -0.541 ± 0.089.
G20V gave an abundance fitness of -0.918 ± 0.25.
Variant S9M has an abundance fitness of 0.39 ± 0.11.
For S9V, the abundance fitness was -0.483 ± 0.11.
Variant S9L has an abundance fitness of -0.31 ± 0.091.
Work on S9N yielded an abundance fitness of 0.107 ± 0.052.
With S9G the abundance fitness was -0.354 ± 0.058.
With S9A the abundance fitness was -0.219 ± 0.078.
For S9Y, the abundance fitness was -0.481 ± 0.15.
Work on S9T yielded an abundance fitness of -0.15 ± 0.13.
With S9W the abundance fitness was -0.335 ± 0.082.
S9C showed an abundance fitness of -0.343 ± 0.11.
In the case of S9I, the abundance fitness is reported as -0.021 ± 0.091.
With S9R the abundance fitness was -0.671 ± 0.096.
K3I showed an abundance fitness of -0.278 ± 0.33.
For K3P, the abundance fitness was -0.01 ± 0.058.
K3V gave an abundance fitness of -0.205 ± 0.094.
In the case of K3T, the abundance fitness is reported as -0.052 ± 0.048.
With K3G the abundance fitness was -0.268 ± 0.056.
Variant K3A has an abundance fitness of -0.098 ± 0.044.
K3F gave an abundance fitness of -0.258 ± 0.26.
Variant K3E has an abundance fitness of -0.175 ± 0.17.
In the case of K3M, the abundance fitness is reported as 0.339 ± 0.11.
For K3N, the abundance fitness was -0.499 ± 0.45.
With K3W the abundance fitness was -0.33 ± 0.093.
Work on K3C yielded an abundance fitness of -0.394 ± 0.14.
K3Q showed an abundance fitness of -0.245 ± 0.16.
Variant K3H has an abundance fitness of -0.519 ± 0.2.
In the case of V16Y, the abundance fitness is reported as -0.885 ± 0.25.
For V16W, the abundance fitness was -0.765 ± 0.094.
In the case of V16K, the abundance fitness is reported as -0.798 ± 0.43.
Work on V16G yielded an abundance fitness of -0.504 ± 0.062.
In the case of V16E, the abundance fitness is reported as -0.62 ± 0.092.
V16S gave an abundance fitness of -0.563 ± 0.085.
For V16R, the abundance fitness was -0.323 ± 0.074.
